The record followed here is paper doi:10.1101/2020.01.22.914192, “CryoEM structures of human CMG - ATPγS - DNA and CMG - AND-1 complexes”.

This data set has as its target CMG helicase (Cdc45-MCM2-7-GINS) (human, UniProt P49736;P25205;P33991;P33992;Q14566;P33993;O75419;Q14691;Q9Y248;Q9BRX5;Q9BRT9 …). Description: cryoEM structure (3.29 A); ATPgS 100 uM; 5 mM Mg acetate; ATPgS/Mg2+ at MCM6, 4, 7; ADP at MCM2, 3; MCM5 site empty; Buffer S: 25 mM Hepes pH 7.5, 50 mM KCl, 5 mM Mg acetate, 2 mM DTT, 100 uM ATPgS; 4 uM fork DNA applied to StrepTrap-bound CMG, eluted with 15 mM desthiobiotin; binding temperature not stated (stored overnight at 4 C). Conditions: protein: recombinant; tags: MCM4 N-terminal His8-TEV; Psf2 C-terminal TEV-2xStrepII; copies: 1;1;1;1;1;1;1;1;1;1;1; fork: 40 bp duplex, 30 nt 3' poly-dT tail (strand 1) and 30 nt 5' GC-rich tail (strand 2).

B1: fork DNA 70T/70GC (dsDNA)
DNA 1: CGTTTTACAACGTCGTGACTGGGCACTTGATCGGCCAACCTTTTTTTTTTTTTTTTTTTTTTTTTTTTTT
DNA 2: CAGGCAGGCAGGCAGGCAGGCAGGCAGGCAGGTTGGCCGATCAAGTGCCCAGTCACGACGTTGTAAAACG
Turning to B1, the binding result is recorded as “binds”.
